Where a name gives a salt, the structure may show the parent alone.
Assays:
Type in all cases: cell-based
[1] = system: cell mass containing neural tissue and nonneural epithelial tissue prepared from human ES cell line KhES-1; assay: Compound stimulability test by fluorescein staining and extraction (Example 11); details: test compound 2.5% in PBS, 24 hr, 37° C.; 0.02% fluorescein 30 sec; extraction 10 min; excitation 485 nm, emission 535 nm; Category 1 compound versus Category 2 compound
Method: Cell masses were prepared by the method described in Example 3 from human ES cell line KhES-1. Cell masses were collected using micropipette on day 28 from the start of suspension culturing, placed in a dish for suspension culture (manufactured by SUMITOMO BAKELITE CO., LTD.), and further cultured in suspension under the conditions of 37° C., 5% CO2 for 9 days. As the serum-free medium (gfCDM+KSR) therefor, a serum-free medium which is a 1:1 mixture of F-12+Glutamax medium (manufactured by Thermo Fisher Scientific) and […] medium (manufactured by Thermo Fisher Scientific) supplemented with 10% Knockout Serum Replacement (manufactured by Thermo Fisher Scientific), 450 μM 1-mono thioglycerol (manufactured by Wako Pure Chemical Industries, Ltd.), 1×Chemically defined lipid concentrate (manufactured by Thermo Fisher Scientific), 50 unit/ml penicillin-50 μg/ml streptomycin (manufactured by Nacalai Tesque) was used.
The cell masses on day 37 of suspension culturing and prepared by the above-mentioned method were added to 1.5 ml microtubes at 3 masses per tube, and washed twice with PBS. […] The concentration of fluorescein in the extract prepared by the above-mentioned method was measured using a fluorescent plate reader (2104 EnVision multilabel counter, manufactured by Perkin Elmer) under the conditions of excitation 485 nm and emission 535 nm.

[2] = system: Human ES cells (KhES-1 strain); assay: Consideration of concentration of BMP4 in production of cell mass (Example 6)
Method: Human ES cells (KhES-1 strain, obtained from Kyoto University) were cultured under feeder-free conditions according to the method described in Scientific Reports, 4, 3594 (2014). As the feeder-free medium, StemFit medium was used and, as the feeder-free scaffold, Laminin 511-E8 was used. Specific maintenance culturing operation was performed in the same manner as in Comparative Example 1.
The thus-prepared subconfluent human ES cells were washed with PBS, subjected to an enzyme treatment using Accumax, a serum-free medium for differentiation induction was added, and the cells were scraped from the surface of the culture dish by using a cell scraper and dispersed into single cells by pipetting. Thereafter, the aforementioned human ES cells dispersed into single cells were suspended in 100 μl of a serum-free medium at 1×10^4 cells per well of a non-cell-adhesive 96-well culture plate (PrimeSurface 96V-bottom plate, manufactured by SUMITOMO BAKELITE), and cultured in suspension under the conditions of 37° C., 5% CO2. […]

[3] = system: Human ES cells (KhES-1 strain); assay: Consideration of timing of addition of BMP4 in production of cell mass (Example 4)
Method: Human ES cells (KhES-1 strain, obtained from Kyoto University) were cultured under feeder-free conditions according to the method described in Scientific Reports, 4, 3594 (2014). As the feeder-free medium, StemFit medium was used and, as the feeder-free scaffold, […] was used.
Specific maintenance culturing operation was performed in the same manner as in Comparative Example 1. Thereafter, suspension culturing in a 96-well plate under conditions similar to those in Comparative Example 1 was started. The condition without addition of a BMP signal transduction pathway activating substance during the suspension culturing period was taken as the control (−BMP4 condition, FIG. 5A). In the condition with the addition of a BMP signal transduction pathway activating substance simultaneously with the start of the suspension culturing (Day0+BMP4 condition, FIG. 5B), human recombinant BMP4 (manufactured by R & D Systems, 1.5 nM, start of step 2) was added. Thereafter, in the condition with the addition of a BMP signal transduction pathway activating substance on days 1, 2, 3 from the start of suspension culturing (Day1-3+BMP4 condition, FIGS. 5C-E), a serum-free medium not containing Y27632 and containing IWP-2, SB-431542, BMP4 was added at 100 μl per well. BMP4 was added at 3 nM to the medium such that the final concentration thereof in the well was 1.5 nM. Only in the Day0+BMP4 condition, a serum-free medium not containing Y27632 and containing IWP-2, SB-431542, BMP4 was added at 100 μl per well on day 3 from the start of suspension culturing. In the condition with the addition of a BMP signal transduction pathway activating substance on day 6 from the start of differentiation induction (Day6+BMP4 condition, FIG. 5F), a serum-free medium not containing Y27632 or BMP4 and containing IWP-2 and SB-431542 was added at 100 μl per well on day 3 from the start of differentiation induction, and a half amount of the medium was changed on day 6 with a serum-free medium not containing Y27632 and containing IWP-2, SB-431542, BMP4. Under other conditions, a half amount of the medium was changed with a serum-free medium not containing Y27632 or BMP and containing IWP-2 and SB-431542 on day 6 from the start of suspension culturing. On day 10 from the start of suspension culturing, bright field observation was performed using an inverted microscope (manufactured by KEYENCE CORPORATION, BIOREVO) (FIGS. 5A-B).

[4] = BMP4 1.5 nM, observation day 10

Row | elution amount after incorporation of fluorescein [1] | Molecule | BMP4 concentration at which nonneural epithelial tissue can be formed on the surface of cell mass ([2]; BMP4 added on day 2 from the start of suspension culturing) | formation of cell mass having nonneural epithelial tissue on the surface ([2]; BMP4 at any concentration from 0.1 nM to 5 nM added on day 2, IWP-2 2 μM, SB-431542 1 μM, observation day 10) | time of addition from the start of suspension culturing effective for formation of the cell mass ([3]; BMP4 1.5 nM) [h] | formation of cell masses with two-layer structure ([3]; BMP4 1.5 nM added on day 1 and day 2 (Day1, 2+BMP4), observation day 10) | efficiency of formation of nonneural epithelium-like tissue on the outside ([3]; BMP4 1.5 nM added on day 3 and day 6, observation day 10) | formation of embryoid body ([3]; BMP4 1.5 nM added simultaneously with start of differentiation induction (Day0+BMP4), observation day 10) | diameter of embryoid body, BMP4 on day 2 relative to BMP4 on day 1 [3, 4] | volume of embryoid body, BMP4 on day 2 relative to BMP4 on day 1 [3, 4]
1 | significant difference | O=Cc1ccc(C(=O)O)cc1 [4-formylbenzoic acid] |  |  |  |  |  |  |  | 
2 | significant difference | CC(CN1c2ccccc2Sc2ccccc21)N(C)C (stereo not shown) [promethazine hydrochloride] |  |  |  |  |  |  |  | 
3 |  | BMP4: human recombinant BMP4 (manufactured by R & D Systems), BMP signal transduction pathway activating substance (protein, UniProt P12644 293-408, looked up) Bone morphogenetic protein 4: SPKHHSQRARKKNKNCRRHSLYVDFSDVGWNDWIVAPPGYQAFYCHGDCPFPLADHLNSTNHAIVQTLVNSVNSSIPKACCVPTELSAISMLYLDEYDKVVLKNYQEMVVEGCGCR | not less than 0.1 nM | a cell mass having nonneural epithelial tissue on the surface was formed | ≤ 72 | cell masses containing neural tissue and nonneural epithelial tissue and having a two-layer structure in which a center part with a neuroepithelium-like structure is covered with a nonneural epithelium-like layer were formed | lower than that of the condition with the addition of BMP4 on day 2 | markedly inhibited | about 1.3 times | about 2.2 times
